Assay results reported in US20160175384A1 (published 2016).
Square brackets hold non-standard residues; d marks the D form. Side chains are listed from the residue outwards. * marks the point of attachment. IR800CW = near-infrared dye IRDye800CW (maleimide); Cy5 = Cy5 fluorescent dye (maleimide); d2Nal = N[C@H](Cc1ccc2ccccc2c1)C(=O)O; Butanoyl(4-Ph) = O=C(CCCc1ccccc1)*; Butanoyl(4-ethynyl) = C#CCCCC(=O)*; hPhe = N[C@@H](CCc1ccccc1)C(=O)O; Nle = CCCC[C@H](N)C(=O)O; Mpa = O=C(O)CCS

Key:
[1] = molecular target: T1, human melanocortin 5 receptor (human, UniProt P33032 1-325); test: competitive binding vs Eu-NDP-alpha-MSH, time-resolved fluorescence, HEK293/hMC5R cells
T1 construct: whole, on cells; also called hMC5R; MC5R
T1 sequence (P33032 whole entry): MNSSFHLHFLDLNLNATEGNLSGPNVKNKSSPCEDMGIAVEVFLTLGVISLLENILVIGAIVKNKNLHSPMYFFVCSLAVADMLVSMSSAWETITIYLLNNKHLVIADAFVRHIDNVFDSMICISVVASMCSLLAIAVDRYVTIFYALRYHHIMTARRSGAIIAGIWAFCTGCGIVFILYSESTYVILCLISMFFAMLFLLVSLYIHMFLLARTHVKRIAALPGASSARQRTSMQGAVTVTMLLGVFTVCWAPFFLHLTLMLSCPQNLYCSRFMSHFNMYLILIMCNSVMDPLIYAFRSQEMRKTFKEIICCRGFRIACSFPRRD
Procedure: (§1) Competitive binding assays were performed using HCT116/hMC1R cells and HEK293/hMC4R or hMC5R as previously described, with slight modifications. HCT116/hMC1R cells were plated in black PerkinElmer 96-well plates and HEK293/hMC4R and HEK293/hMC5R cells were plated on SigmaScreen Poly-D-Lysine Coated Plates (SigmaAldrich), all at a density of 10,000-30,000 cells/well. Poly-D-Lysine Coated Plates contain a PDL polymer coating that creates a uniform positive charge at the surface of the plastic, thereby facilitating cell attachment, growth and differentiation. […] Both labeled and non-labeled ligands were diluted in binding media (DMEM, 1 mM 1,10-phenanthroline, 200 mg/L bacitracin, 0.5 mg/L leupeptin, 0.3% BSA). In the case of the triblock polymer micelle solutions, micelles were allowed to equilibrate in solution for a period of 30 min prior to cell addition. Cells were incubated with labeled and non-labeled ligands for 1 hour at 37° C. Following incubation, cells were washed three times with wash buffer (50 mM Tris-HCl, 0.2% BSA, 30 mM NaCl) and 50 µL of enhancement solution (PerkinElmer) was added to each well. Cells were incubated for an additional 30 min at 37° C. prior to reading. […] Competition curves were analyzed with GraphPad Prism software using the sigmoidal dose-response (variable slope) classical equation for nonlinear regression analysis.

[2] = molecular target: T2, human melanocortin 1 receptor (human, UniProt Q01726 1-317); test: ratio of Ki values (MC4R over MC1R) from Eu-NDP-alpha-MSH competitive binding
T2 construct: whole, on cells; also called hMC1R; MC1R
T2 sequence (Q01726 whole entry): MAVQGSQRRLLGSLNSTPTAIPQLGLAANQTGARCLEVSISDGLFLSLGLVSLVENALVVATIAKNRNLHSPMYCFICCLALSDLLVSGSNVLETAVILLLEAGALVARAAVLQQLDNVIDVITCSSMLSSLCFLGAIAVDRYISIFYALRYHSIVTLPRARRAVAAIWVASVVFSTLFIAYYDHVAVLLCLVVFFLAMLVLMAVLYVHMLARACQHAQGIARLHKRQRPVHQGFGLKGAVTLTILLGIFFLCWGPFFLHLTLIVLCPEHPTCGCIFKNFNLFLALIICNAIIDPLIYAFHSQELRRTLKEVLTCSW

[3] = molecular target: T2, human melanocortin 1 receptor; test: ratio of Ki values (MC5R over MC1R) from Eu-NDP-alpha-MSH competitive binding
[4] = molecular target: T3, human melanocortin 4 receptor (human, UniProt P32245 1-332); test: competitive binding vs Eu-NDP-alpha-MSH, time-resolved fluorescence, HEK293/hMC4R cells
T3 construct: whole, on cells; also called hMC4R; MC4R
T3 sequence (P32245 whole entry): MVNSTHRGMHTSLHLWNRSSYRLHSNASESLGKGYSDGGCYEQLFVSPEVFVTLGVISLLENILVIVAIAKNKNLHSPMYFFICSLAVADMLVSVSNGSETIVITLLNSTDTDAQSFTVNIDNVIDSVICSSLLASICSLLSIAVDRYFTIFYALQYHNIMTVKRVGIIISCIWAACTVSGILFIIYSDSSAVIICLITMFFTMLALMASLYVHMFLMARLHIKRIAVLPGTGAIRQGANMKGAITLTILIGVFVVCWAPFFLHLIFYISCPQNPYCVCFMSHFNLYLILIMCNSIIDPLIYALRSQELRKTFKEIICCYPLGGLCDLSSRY
Procedure: as §1

[5] = molecular target: T2, human melanocortin 1 receptor; test: competitive binding vs Eu-NDP-alpha-MSH, time-resolved fluorescence, HCT116/hMC1R cells
Procedure: as §1

[6] = molecular target: MC5R expressed in the kidneys of the xenograft-bearing mice; test: cell-based or functional assay
Sequence of MC5R expressed in the kidneys of the xenograft-bearing mice (P41149 whole entry): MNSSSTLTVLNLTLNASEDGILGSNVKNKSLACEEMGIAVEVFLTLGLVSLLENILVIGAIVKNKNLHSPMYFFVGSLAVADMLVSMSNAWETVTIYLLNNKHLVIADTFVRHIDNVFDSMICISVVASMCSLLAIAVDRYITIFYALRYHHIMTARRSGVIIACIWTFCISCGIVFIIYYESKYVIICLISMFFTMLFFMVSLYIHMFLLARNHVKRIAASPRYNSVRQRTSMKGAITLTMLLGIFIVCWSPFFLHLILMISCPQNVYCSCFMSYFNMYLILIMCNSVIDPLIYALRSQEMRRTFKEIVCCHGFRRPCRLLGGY

[7] = molecular target: T2, human melanocortin 1 receptor; test: cell-based or functional assay
[8] = molecular target: T2, human melanocortin 1 receptor; test: competition binding vs Eu-NDP-a-MSH, time-resolved fluorescence, A375/hMC1R cells
[9] = molecular target: T2, human melanocortin 1 receptor; test: competitive binding vs Eu-NDP-alpha-MSH, HCT116/hMC1R cells

B1: H-Tyr-Val-Nle-Gly-His-DNal(2′)-Arg-DTrp-Asp-Arg-Phe-Gly-NH2 (peptide)
peptide: YVLGHXRWDRFG
modifications: Nle; DNal(2′); DTrp; C-terminal amide (NH2)
notes: Synthetic; also called compound 5; ligand 5
[1]
  Ki: 0.76 nM

B2: H-Tyr-Val-Nle-Gly-His-DNal(2′)-Arg-DPhe-Asp-Arg-Phe-Gly-NH2 (peptide)
peptide: H-YV[Nle]GH[d2Nal]R[dF]DRFG-NH2
SMILES: CCCC[C@H](NC(=O)[C@@H](NC(=O)[C@@H](N)Cc1ccc(O)cc1)C(C)C)C(=O)NCC(=O)N[C@@H](Cc1c[nH]cn1)C(=O)N[C@H](Cc1ccc2ccccc2c1)C(=O)N[C@@H](CCCNC(=N)N)C(=O)N[C@H](Cc1ccccc1)C(=O)N[C@@H](CC(=O)O)C(=O)N[C@@H](CCCNC(=N)N)C(=O)N[C@@H](Cc1ccccc1)C(=O)NCC(N)=O
notes: Synthetic; also called compound 7; ligand 7
[2]
  1R/4R (selectivity ratio against MC4R): 0.13
[3]
  1R/5R (selectivity ratio against MC5R): 0.13
[4]
  Ki: 0.77 nM
[1]
  Ki: 0.71 nM
[5]
  Ki: 5.64 nM

B3: 4-phenylbutyryl-His-DPhe-Arg-Trp-Gly-Lys(Mpr-IR800CW)-NH2 (peptide)
peptide: {Butanoyl(4-Ph)}-H[dF]RWGK([Mpa-IR800CW])-NH2
notes: Near-infrared dye conjugate of the MC1R ligand; also called MC1RL-800; MC1RL-800 probe
[6]
  renal uptake of MC1RL-800 after co-injection of 1 nmol/kg MC4R/5R-selective ligand (SEQ ID NO:10), compared to control animals, 2 hr after injection: 1.56 fold
[7]
  probe-related fluorescence signal in A375/MC1R tumors after co-injection of 0.25 ug NDP-a-MSH, relative to the unblocked tumor, 2 hr after injection: 1.54 fold
  probe-related fluorescence signal in A375 tumor after co-injection of 0.25 ug NDP-a-MSH, relative to the unblocked tumor, 2 hr after injection: 1.4 fold
[8]
  Ki: 0.4 nM

B4: MC1R-Cy5 probe (peptide)
peptide: {Butanoyl(4-Ph)}-H[dF]RWGK([Mpa-Cy5])-NH2
notes: also called Cy5 conjugated ligand; MC1R-635 probe
[8]
  Ki: 0.3 nM

B5: H-Lys(hex-5-ynoyl)Tyr-Val-Nle-Gly-His-DNal(2′)-Arg-DPhe-Asp-Arg-Phe-Gly-NH2 (peptide)
peptide: H-K(Butanoyl(4-ethynyl))YV[Nle]GH[d2Nal]R[dF]DRFG-NH2
SMILES: C#CCCCC(=O)NCCCC[C@H](N)C(=O)N[C@@H](Cc1ccc(O)cc1)C(=O)N[C@H](C(=O)N[C@@H](CCCC)C(=O)NCC(=O)N[C@@H](Cc1c[nH]cn1)C(=O)N[C@H](Cc1ccc2ccccc2c1)C(=O)N[C@@H](CCCNC(=N)N)C(=O)N[C@H](Cc1ccccc1)C(=O)N[C@@H](CC(=O)O)C(=O)N[C@@H](CCCNC(=N)N)C(=O)N[C@@H](Cc1ccccc1)C(=O)NCC(N)=O)C(C)C
notes: Synthetic; alkyne analogue of ligand 7; also called compound 8; ligand 8
[2]
  1R/4R (selectivity ratio against MC4R): 1.05
[3]
  1R/5R (selectivity ratio against MC5R): 0.93
[4]
  Ki: 4.4 nM
[1]
  Ki: 3.9 nM
[5]
  Ki: 4.19 nM

B6: 4-phenylbutyryl-His-DPhe-Arg-Trp-NH2 (peptide)
peptide: {Butanoyl(4-Ph)}-H[dF]RW-NH2
notes: Synthetic peptidomimetic; also called compound 1
[5]
  Ki: 0.17 nM

B7: 4-phenylbutyryl-His-DPhe-Arg-Trp-Gly-Lys(hex-5-ynoyl)-NH2 (peptide)
peptide: {Butanoyl(4-Ph)}-H[dF]RWGK(Butanoyl(4-ethynyl))-NH2
SMILES: C#CCCCC(=O)NCCCC[C@H](NC(=O)CNC(=O)[C@H](Cc1c[nH]c2ccccc12)NC(=O)[C@H](CCCNC(=N)N)NC(=O)[C@@H](Cc1ccccc1)NC(=O)[C@H](Cc1c[nH]cn1)NC(=O)CCCc1ccccc1)C(N)=O
notes: Synthetic; alkyne-functionalised form of compound 1; also called compound 4
[9]
  Ki: 1.17 nM
[5]
  Ki: 0.24 nM

## Ac-[hPhe]H[dF]RW-NH2 (Synthetic; also called compound 2) [Ac-Homophenylalanine-His-DPhe-Arg-Trp-NH2]
[1]
  Ki: 58.2 nM
[5]
  Ki: 1.77 nM
